Publication PMC3511649

Legend:
[1] = biological target: OG488-EGR labeled Gla-domainless factor IXa (GD-FIXa) (human) (UniProt P00740); assay: fluorescence polarisation
[2] = biological target: OG488-EGR labeled wild-type factor IXa (human) (UniProt P00740); assay: fluorescence polarisation

UniProt P00740, sequence (P00740 47-191, chain 1 of 2): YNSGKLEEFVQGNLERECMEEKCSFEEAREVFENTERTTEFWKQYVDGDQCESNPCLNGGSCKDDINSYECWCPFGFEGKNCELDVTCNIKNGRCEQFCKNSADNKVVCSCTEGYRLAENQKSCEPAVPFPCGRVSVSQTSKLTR
UniProt P00740, sequence (P00740 227-461, chain 2 of 2): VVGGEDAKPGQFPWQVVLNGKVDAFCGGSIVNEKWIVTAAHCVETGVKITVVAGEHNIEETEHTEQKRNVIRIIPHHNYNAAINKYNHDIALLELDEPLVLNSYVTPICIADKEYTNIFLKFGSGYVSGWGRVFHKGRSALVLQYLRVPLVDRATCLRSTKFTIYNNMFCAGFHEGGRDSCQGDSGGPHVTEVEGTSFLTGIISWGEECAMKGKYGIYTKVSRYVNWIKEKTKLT

Substance: human recombinant factor VIIIa (complex)
- Kd [1]: 310 nM
- Kd [2]: 1.5 nM
